Test results as given in publication PMC13107026, “Intestinal epithelial C/EBPβ deficiency impairs colitis-associated tumorigenesis by disrupting CXCL1/CXCL2/CXCL5-CXCR2-mediated neutrophil infiltration”.

Experiments:
C/EBPβ [1] = biological target: T1, C/EBPβ (Homo sapiens, UniProt P17676 1-345); test: competition; 100-fold molar excess vs biotin CXCL2 WT probe; LightShift Chemiluminescent EMSA kit; 6% native polyacrylamide gel, 0.5x TBE, 100 V, 60 min; binding buffer, salt, pH and temperature not stated; settings: protein: recombinant; chain copies: 2; label: unlabeled; blunt
C/EBPβ [2] = biological target: T1, C/EBPβ; test: competition; 100-fold molar excess vs biotin CXCL1 WT probe; LightShift Chemiluminescent EMSA kit; 6% native polyacrylamide gel, 0.5x TBE, 100 V, 60 min; binding buffer, salt, pH and temperature not stated; settings: protein: recombinant; chain copies: 2; label: unlabeled; blunt
C/EBPβ [3] = biological target: T1, C/EBPβ; test: EMSA, competition, supershift; LightShift Chemiluminescent EMSA kit; 6% native polyacrylamide gel, 0.5x TBE, 100 V, 60 min; binding buffer, salt, pH and temperature not stated; settings: protein: recombinant; chain copies: 2; label: biotin (5' of both strands); blunt
C/EBPβ [4] = biological target: T1, C/EBPβ; test: competition; 100-fold molar excess vs biotin CXCL5 WT probe; LightShift Chemiluminescent EMSA kit; 6% native polyacrylamide gel, 0.5x TBE, 100 V, 60 min; binding buffer, salt, pH and temperature not stated; settings: protein: recombinant; chain copies: 2; label: unlabeled; blunt

T1 sequence (P17676 whole entry): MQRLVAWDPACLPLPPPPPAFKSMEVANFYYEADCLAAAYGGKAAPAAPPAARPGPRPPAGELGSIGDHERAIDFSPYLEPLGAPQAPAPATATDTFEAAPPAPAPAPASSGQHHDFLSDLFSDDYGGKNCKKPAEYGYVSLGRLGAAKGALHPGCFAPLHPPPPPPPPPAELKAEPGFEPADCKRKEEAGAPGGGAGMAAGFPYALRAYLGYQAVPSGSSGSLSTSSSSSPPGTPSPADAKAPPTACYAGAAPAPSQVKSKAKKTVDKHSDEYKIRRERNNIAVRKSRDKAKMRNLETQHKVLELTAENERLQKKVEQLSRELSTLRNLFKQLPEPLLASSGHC

Binder | binding result (C/EBPβ [3]) | further results
CXCL2 MUT probe (dsDNA) DNA 1: TAGAAGTGGTAGGGTCTCCTCTTACTGATA DNA 2: TATCAGTAAGAGGAGACCCTACCACTTCTA | – | binding result (C/EBPβ [1]): no binding
CXCL1 MUT probe (dsDNA) DNA 1: TGGAAACGGTCCCCACCCCT DNA 2: AGGGGTGGGGACCGTTTCCA | – | binding result (C/EBPβ [2]): no binding
CXCL2 WT probe (dsDNA) DNA 1: TAGAAGTGGTGTTTCACAACCTTACTGATA DNA 2: TATCAGTAAGGTTGTGAAACACCACTTCTA | binds | –
CXCL1 WT probe (dsDNA) DNA 1: TGGAACTTTCAAAATCCCCT DNA 2: AGGGGATTTTGAAAGTTCCA | binds | –
CXCL5 MUT probe (dsDNA) DNA 1: CACTGTCAATTTTTATGGCAG DNA 2: CTGCCATAAAAATTGACAGTG | – | binding result (C/EBPβ [4]): no binding
CXCL5 WT probe (dsDNA) DNA 1: CACTGTCTTGCTCCATGGCAG DNA 2: CTGCCATGGAGCAAGACAGTG | binds | –
